Data from US20030182672A1.

How the values were obtained:
[1] = biological target: HER-2 protein (also designated neu and erbB-2), endogenous in human MDA-MB-468 cells (human) (UniProt P04626); assay: FACS, fixed and permeabilized parental MDA-MB-468 cells, antibody at 1/100, Alexa Fluor 488 secondary
[2] = biological target: HER-2 protein (also designated neu and erbB-2), endogenous in human MDA-MB-468 cells (human) (UniProt P04626); assay: FACS, MDA-MB-468 cells, irrelevant IgG2b control at 1/100, Alexa Fluor 488 secondary; background

Geometric mean Fluorescence [1] | Mean Fluorescence [1] | Median Fluorescence [1] | Geometric mean Fluorescence [2] | Mean Fluorescence [2] | Substance
1090 | 1220 | 1180 |  |  | mouse Anti-erbB2 monoclonal antibody (Transduction Laboratories, Cat. No. E19420, an IgG2b isotype)
 |  |  | 122 | 137 | irrelevant primary antibody MART-1, an IgG2b antibody (NeoMarkers)
